Molecular target: T1, MAP2c-1-467 with N-terminal histidine tag (H6-MAP2c) (rat, UniProt P15146-3 1-467, RED-tris-NTA fluorescent label on the histidine tag)
T1 sequence: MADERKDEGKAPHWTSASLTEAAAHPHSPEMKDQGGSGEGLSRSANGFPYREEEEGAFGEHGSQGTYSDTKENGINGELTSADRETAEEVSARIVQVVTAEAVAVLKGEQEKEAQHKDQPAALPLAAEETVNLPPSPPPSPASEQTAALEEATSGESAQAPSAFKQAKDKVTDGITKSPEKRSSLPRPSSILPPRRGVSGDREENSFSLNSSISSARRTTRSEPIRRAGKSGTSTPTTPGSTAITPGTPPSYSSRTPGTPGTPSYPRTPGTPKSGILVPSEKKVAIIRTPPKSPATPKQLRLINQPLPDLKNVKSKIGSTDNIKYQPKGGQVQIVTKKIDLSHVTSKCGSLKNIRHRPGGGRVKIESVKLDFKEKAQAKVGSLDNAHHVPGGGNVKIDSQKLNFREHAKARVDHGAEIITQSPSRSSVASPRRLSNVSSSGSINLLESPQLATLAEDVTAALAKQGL
Experiment: MST

B1: SH3 domain of Fyn fused to hexahistidine tag (Fyn-SH3) (domain or fragment)
chain: not shown
Which Kd does the source give for B1 here?
Its Kd is 22 ± 5 nM.
